The values that follow come from paper PMC3228899 (Nature, 2011).

Assay [1] addresses Clb5-TAP-Cdk1 complex (budding yeast | budding yeast …, UniProt P30283 1-435; P00546 1-298). As to the kind of experiment: pull-down.
Assay [2] concerns the target 3HA-Cln2-Cdk1 complex (budding yeast | budding yeast …, UniProt P20438 1-545; P00546 1-298).

3HA-Cln2-Cdk1 complex, sequence (P20438 whole entry, chain 1 of 2): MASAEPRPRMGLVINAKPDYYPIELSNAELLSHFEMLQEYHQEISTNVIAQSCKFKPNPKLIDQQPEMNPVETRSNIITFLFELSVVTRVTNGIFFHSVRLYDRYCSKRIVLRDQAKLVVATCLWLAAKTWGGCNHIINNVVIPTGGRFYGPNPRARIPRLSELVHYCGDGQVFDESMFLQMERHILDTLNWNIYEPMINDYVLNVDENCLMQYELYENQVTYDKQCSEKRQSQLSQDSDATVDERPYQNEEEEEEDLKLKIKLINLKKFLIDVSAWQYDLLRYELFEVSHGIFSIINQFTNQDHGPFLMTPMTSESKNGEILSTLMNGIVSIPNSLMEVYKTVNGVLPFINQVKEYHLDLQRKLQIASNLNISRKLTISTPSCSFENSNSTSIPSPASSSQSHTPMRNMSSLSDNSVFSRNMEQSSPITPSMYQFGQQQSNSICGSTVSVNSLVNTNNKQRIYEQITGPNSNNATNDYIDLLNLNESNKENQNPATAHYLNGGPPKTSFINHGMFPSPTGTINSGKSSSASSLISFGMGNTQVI
3HA-Cln2-Cdk1 complex, sequence (P00546 whole entry, chain 2 of 2): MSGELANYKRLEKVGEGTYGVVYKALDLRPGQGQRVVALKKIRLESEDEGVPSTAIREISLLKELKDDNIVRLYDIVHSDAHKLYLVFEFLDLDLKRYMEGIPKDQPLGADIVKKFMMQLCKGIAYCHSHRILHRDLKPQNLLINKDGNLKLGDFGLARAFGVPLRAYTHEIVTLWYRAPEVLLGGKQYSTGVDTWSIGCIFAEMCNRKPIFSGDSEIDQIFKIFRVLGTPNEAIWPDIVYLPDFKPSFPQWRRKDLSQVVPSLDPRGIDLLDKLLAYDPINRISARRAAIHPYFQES
Clb5-TAP-Cdk1 complex, sequence (P30283 whole entry, chain 1 of 2): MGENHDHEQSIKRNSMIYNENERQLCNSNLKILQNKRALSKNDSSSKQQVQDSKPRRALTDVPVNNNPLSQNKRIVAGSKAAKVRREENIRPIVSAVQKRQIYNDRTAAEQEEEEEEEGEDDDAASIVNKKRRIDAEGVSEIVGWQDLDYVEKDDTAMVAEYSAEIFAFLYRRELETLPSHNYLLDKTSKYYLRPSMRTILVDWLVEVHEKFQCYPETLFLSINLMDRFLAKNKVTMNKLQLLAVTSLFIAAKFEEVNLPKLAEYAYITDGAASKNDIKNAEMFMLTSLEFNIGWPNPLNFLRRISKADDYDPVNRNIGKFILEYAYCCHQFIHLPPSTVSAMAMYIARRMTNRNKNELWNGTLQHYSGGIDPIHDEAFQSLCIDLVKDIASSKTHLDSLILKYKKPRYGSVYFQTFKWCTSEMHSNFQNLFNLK
Clb5-TAP-Cdk1 complex, sequence (P00546 whole entry, chain 2 of 2): as the sequence (P00546 whole entry, chain 2 of 2) above

B1: full-length Sic1 (natural protein, budding yeast, UniProt P38634 1-284, looked up)
chain: MTPSTPPRSRGTRYLAQPSGNTSSSALMQGQKTPQKPSQNLVPVTPSTTKSFKNAPLLAPPNSNMGMTSPFNGLTSPQRSPFPKSSVKRTLFQFESHDNGTVREEQEPLGRVNRILFPTQQNVDIDAAEEEEEGEVLLPPSRPTSARQLHLSLERDEFDQTHRKKIIKDVPGTPSDKVITFELAKNWNNNSPKNDARSQESEDEEDIIINPVRVGKNPFASDELVTQEIRNERKRAMLRENPDIEDVITYVNKKGEVVEKRRLTDEEKRRFKPKALFQSRDQEH
On to B1, for which the binding result in assay [1] is on record as “binds”.

B2: Cks1 (endogenous, in yeast) (natural protein, UniProt P20486 1-150, looked up)
chain: MYHHYHAFQGRKLTDQERARVLEFQDSIHYSPRYSDDNYEYRHVMLPKAMLKVIPSDYFNSEVGTLRILTEDEWRGLGITQSLGWEHYECHAPEPHILLFKRPLNYEAELRAATAAAQQQQQQQQQQQQQQQQHQTQSISNDMQVPPQIS
Regarding B2, the “stoichiometry N” value in assay [2] is ~1 Cks1:Cdk1.
